# Measured values reported in PMC3749136 (PLoS ONE, 2013).
# B1: SOCS5 175–244 fragment (domain or fragment, mouse, UniProt O54928 175-244, looked up)
# chain: RSLRQRLQDTVGLCFPMRTYSKQSKPLFSNKRKIHLSELMLEKCPFPAGSDLAQKWHLIKQHTAPVSPHS
# notes: SOCS5, mouse, residues 175-244 (region conserved in SOCS4); Mass by LC-MS 8103 Da; also called JIR; source: E. coli BL21 (DE3), GST fusion purified on glutathione-Sepharose 4B, cleaved with TEV, RP-HPLC; not shown: GST, N-terminal, cleaved
# Target: T1, JAK1 JH1 domain (UniProt P23458 875-1153)
# T1 construct: JAK1, JH1 (kinase) domain; also called JAK1 kinase (JH1) domain; active JAK1 JH1 domain
# Assay: SPR; SOCS5 175-244 immobilised by amine coupling on a CM5 chip; JAK JH1 domains (62.5 nM to 2 µM) injected; 10 mM HEPES pH 8.0, 200 mM NaCl, 3.0 mM EDTA, 0.05% Tween20; steady-state fit, apparent KD; BIAcore3000
# Conditions: both partners purified
# T1 sequence (P23458 875-1153): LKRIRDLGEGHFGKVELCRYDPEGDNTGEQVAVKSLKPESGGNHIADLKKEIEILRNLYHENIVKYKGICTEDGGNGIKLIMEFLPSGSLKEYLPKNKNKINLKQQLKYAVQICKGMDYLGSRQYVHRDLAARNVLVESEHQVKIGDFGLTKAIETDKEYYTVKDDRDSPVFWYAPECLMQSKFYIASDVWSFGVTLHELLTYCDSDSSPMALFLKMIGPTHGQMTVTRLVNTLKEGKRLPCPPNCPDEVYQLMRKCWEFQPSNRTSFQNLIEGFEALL
binder,measurement,value
B1,Kd,500 nM
